Results from PMC2881335.
“And” between values parts separate entries of the source, which are not always exact repeats. Equal values may be shown once.

B1: staphylococcal complement inhibitor SCIN-A (natural protein)
chain: STSLPTSNEYQNEKLANELKSLLDELNVNELATGSLNTYYKRTIKISGQKAMYALKSKDFKKMSEAKYQLQKIYNEIDEALKSKY

How the values were obtained:
[1] = molecular target: complement C3b, site-specifically biotinylated at the thioester moiety (UniProt P01024); assay: SPR
complement C3b = complement C3b (UniProt P01024); assay: ITC
[2] = molecular target: complement C3b, site-specifically biotinylated at the thioester moiety (UniProt P01024); assay: SPR; remark: listed apart in the source

| Molecule | decay half-life of the convertase [1] [min] | Kd (complement C3b) [nM] | stoichiometry N (complement C3b) | Kd [2] |
| --- | --- | --- | --- | --- |
| Bb fragment of factor B (from UniProt P00751 260-764) (domain or fragment) | 5 to 6 |  |  |  |
| B1 |  | 264 | 0.75 | 169 nM and 177 nM |
